The results in this text go back to patent US20140120109A1 (Regeneron, published 2014).

Positions count from the first letter of the chain named. Names may count otherwise.

Sequences and labels used below:
T1: Fhm, hTL1A(Q167R), soluble, CHO-expressed, residues 72-251 of SEQ ID NO:246 (human, UniProt O95150 72-251)
T1 chain: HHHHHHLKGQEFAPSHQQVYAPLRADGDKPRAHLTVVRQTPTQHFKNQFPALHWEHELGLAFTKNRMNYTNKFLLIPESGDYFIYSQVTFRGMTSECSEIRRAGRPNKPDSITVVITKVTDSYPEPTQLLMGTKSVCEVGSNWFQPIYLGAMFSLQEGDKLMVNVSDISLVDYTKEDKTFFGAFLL

T2: rat TL1A, soluble, CHO-expressed, residues 76-252 of SEQ ID NO:258 with N-terminal His6-tag (rat, UniProt Q8K3Y7 76-252)
T2 sequence: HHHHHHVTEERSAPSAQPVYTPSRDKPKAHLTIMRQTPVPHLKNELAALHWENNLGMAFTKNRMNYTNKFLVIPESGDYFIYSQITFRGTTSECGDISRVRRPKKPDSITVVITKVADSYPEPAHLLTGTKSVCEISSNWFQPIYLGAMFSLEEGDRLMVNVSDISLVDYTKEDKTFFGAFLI

T3: mouse TL1A, soluble, E. coli-expressed, residues 76-252 of SEQ ID NO:250 (mouse, UniProt Q5UBV8 76-252)
T3 construct: with or without N-terminal Met; also called mTL1A (E. Coli)
T3 sequence: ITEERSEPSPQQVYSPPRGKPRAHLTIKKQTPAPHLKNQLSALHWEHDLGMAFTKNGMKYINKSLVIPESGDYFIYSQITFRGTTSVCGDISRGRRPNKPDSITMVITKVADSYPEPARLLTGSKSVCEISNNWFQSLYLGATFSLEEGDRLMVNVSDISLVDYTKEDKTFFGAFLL

T4: cynomolgus monkey TL1A, soluble, E. coli-expressed, residues 72-251 of SEQ ID NO:248 (cynomolgus monkey (Macaca fascicularis), UniProt O95150 72-251 (human entry))
T4 construct: with or without N-terminal Met; also called MfTL1A (E. Coli)
T4 chain: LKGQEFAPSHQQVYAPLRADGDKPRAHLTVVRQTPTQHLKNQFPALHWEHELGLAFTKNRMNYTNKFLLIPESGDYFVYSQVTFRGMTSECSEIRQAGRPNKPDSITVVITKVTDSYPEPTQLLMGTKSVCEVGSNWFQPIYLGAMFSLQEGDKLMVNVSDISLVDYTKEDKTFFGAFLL

T5: Fhm, hTL1A(Q167R), soluble, E. coli-expressed, residues 72-251 of SEQ ID NO:246 (human, UniProt O95150 72-251)
T5 construct: with or without N-terminal Met
T5 chain: T4 chain with L39F, V78I, Q96R

T6: cynomolgus monkey TL1A, soluble, CHO-expressed, residues 72-251 of SEQ ID NO:248 with N-terminal His6-tag (cynomolgus monkey (Macaca fascicularis), UniProt O95150 72-251 (human entry))
T6 construct: also called MfTL1A; MfTL1A (CHO)
T6 chain: T1 chain with F45L, I84V, R102Q

T7: human TL1A, soluble, CHO-expressed, residues 72-251 of SEQ ID NO:244 with N-terminal His6-tag (human, UniProt O95150 72-251)
T7 construct: also called hTL1A; hTL1A (CHO)
T7 sequence: T1 chain with R102Q

B1: H4H1719P (antibody, human IgG4 S228P, V domains shown)
VH: EVQLVESGGGLVQPGRSLRLSCVASGFTFQDYAMHWVRQAPGKGLEWVSGINWISDDMGYADSVMGRFTISRDNAKNSLYLQMDSLRAEDTALYYCAKDKGLRFLDYVMDVWGQGTTVTVSA
VL: DIVMTQSPLSLPVTPGEPASISCRSTQSLLHRNGHNYLHWYLHKPGQSPQLLIHLGSNRASGVPDRFSGSGSGTDFTLKISRVEAEDVGVYYCMQALQTPYTFGQGTKLEIK
B2: H4H1738P (antibody, human IgG4 S228P, V domains shown)
VH: EVQLVESGGALVKPGGSLRLSCAVSGFTFINDWMNWVRQAPGKGLEWVGRIKSTTDGGTTDDAAPVKGRFTISRDDSKNTLYLQMNSLKTEDTAVYYCTRDRNRQRNYFYDGMDVWGQGTTVTVSA
VL: B1 VL with L9V, T26S, S28R, R32N, H35N, H39D, H43Q, H54Y, I80V
B3: H4H1805N (antibody, human IgG4 S228P, V domains shown)
VH: QVQLQQWGAGLLKPSETLSLTCAVYGGSFTGFYWSWIRQPPGKGLEWIGEINHRGNTNYNPSLKSRVTMSVDTSKNQFSLNMISVTAADTAMYFCASPFYDFWSGSDYWGQGTLVTVSS
VL: DIMLTQTPLTSPVTLGQPASISCKSSQSLVHSDGNTYLSWLQQRPGQPPRLLFYKISNRFSGVPDRFSGSGAGTDFTLKISRVEAEDVGVYYCMQATQFPLTFGGGTKVEIK
notes: human IgG4(S108P) form of H2M1805N
B4: H4H1745P (antibody, human IgG4 S228P, V domains shown)
VH: EVQLVESGGGLVQPGGSLRLSCAASGFTFSSYAMTWVRQAPGKGLEWVSGVSGRGGSTYYADSVKGRFTISRDNSKNTLYLQMNSLRAEDTAVYYCAYWDISSFDYWGQGTLVTVSS
VL: DIQLTQSPSFLSASVGDRVTITCWASQGISTYLAWYQQKPGKTPKLLIYAASTLQSGVPSRFSGSGSGTDFTLTISSLQPEDFATYYCQQFNSYPLTFGGGTKVEIK
B5: H4H1750P (antibody, human IgG4 S228P, V domains shown)
VH: QVQLVESGGGVVQPGRSLRLSCVASGFTFSNYGMHWVRQAPGKGLEWVAVISYDGNNDLYSDSVKGRFTISRDNAKNALSLQMTSLRAEDTAVYYCARDSTMTPYYYHGIDVWGQGTTVTVSA
VL: DIQMTQSPSSLSASVGDRVTITCRASQDIRNDLGWYQQKPGKAPKRLIYAASSLQSGVPSRFSGSGSGTDFTLTISSLQPEDFATYYCLQHNSYPPTFGQGTKVEIK
B6: H4H1818N (antibody, human IgG4 S228P, V domains shown)
VH: RLQLVESGGGLVKPGGSLKLSCAASGFTISDYYMSWIRQAPGKGLEWVSYIGGSGSTIYYADSVKGRFTISRDNAKNSLYLQMNSLRAEDTAVYYCAREDADSYYYYGMDVWGQGTTVTVSS
VL: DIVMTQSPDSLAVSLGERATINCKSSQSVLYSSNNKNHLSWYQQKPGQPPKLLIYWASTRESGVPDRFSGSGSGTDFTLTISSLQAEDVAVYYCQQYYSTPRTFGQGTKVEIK
notes: human IgG4(S108P) form of H2M1818N
B7: H4H1704N (antibody, human IgG4 S228P, V domains shown)
VH: EVQLVESGGGLVQPGGSLRLSCAVSGFTFSSYWMSWVRQAPGKGLEWVANIKEDGSEKNYVDSVKGRFTLSSDNAKNSLYLQMNSLRAEDTAVYYCAREDYDSYYKYGMDVWGQGTAVIVSS
VL: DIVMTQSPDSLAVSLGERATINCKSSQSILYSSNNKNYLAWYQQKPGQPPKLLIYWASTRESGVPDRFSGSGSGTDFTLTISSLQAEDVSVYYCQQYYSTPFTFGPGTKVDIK
notes: human IgG4(S108P) form of H2M1704N
B8: H4H1752P (antibody, human IgG4 S228P, V domains shown)
VH: EVQLVESGGGLVQPGGSLRLSCSASGFTFSKYVMTWVRQAPGKGLEWVSAIGPTGRTTEYADSVQGRFTISRDNSMNTVFLHLNSLTAEDTAEYYCAKMFDWNYDVYFDSWGQGTLVTVSS
VL: DIQMTQSPSILSASVGDRVTITCRTSQSISNWLAWYQQKPGKAPNLLIYKASSLESGVPSRFSGSGSGTEFTLTISSLQPDDFATYYCQQYYRYWTFGQGTKVEIK
B9: H4H1681N (antibody, human IgG4 S228P, V domains shown)
VH: EVQLLESGGGLVQPGKSLRLSCAVSGFTFSTYGMNWVRQAPGKGLEWVSSISGTGRTTYHADSVQGRFTVSRDNSKNILYLQMNSLRADDTAVYFCTKERGDYYYGVFDYWGQGTLVTVSS
VL: DIQMTQSPSTLSASVGDRVTITCRASQTISSWLAWYQQTPEKAPKLLIYAASNLQSGVPSRFSGSGSGTEFTLTISSLQPDDFATYYCQQYHRSWTFGQGTKVEIT

One assay has as its target T1, Fhm, hTL1A(Q167R), soluble, …. Briefly: cell-based or functional assay.
With B1, the “IC50, NFkB-luciferase reporter” value is 80 pM.

Consider B2, for which the “IC50, NFkB-luciferase reporter” value turned out to be 330 pM.

As for B3, the “IC50, NFkB-luciferase reporter” value turned out to be 186000 pM.

For the molecule B4, the “IC50, NFkB-luciferase reporter” value amounted to 150 pM.

As to B5, the “IC50, NFkB-luciferase reporter” value worked out at 3100 pM.

On to B6, for which the “IC50, NFkB-luciferase reporter” value is 620 pM.

As to B7, the “IC50, NFkB-luciferase reporter” value stood at 170 pM.

For the next assay, the target named is T2, rat TL1A, soluble, CHO-expressed, …. Kind of assay: cell-based or functional assay.
On to B6, for which the “IC50, NFkB-luciferase reporter” value stood at 1100 pM.

For the molecule B7, the “IC50, NFkB-luciferase reporter” value was 400 pM.

For another assay, the target named is T3, mouse TL1A, soluble, E. coli-expressed, …. Briefly: SPR 25C, steady state. The gist of the method:
(§1)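 Biacore T100 SPR with captured mAb and soluble TL1A/Fhm analyte; ka and kd fitted to a 1:1 model assuming monomeric TL1A. KD = kd/ka; t1/2 (min) = ln2/(60·kd).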
Turning to B1, the binding result was “no binding (tested: up to 100 nM)”.

Regarding B2, the binding result is given as “no binding (tested: up to 100 nM)”.

On to B4, for which the binding result is listed as “no binding (tested: up to 100 nM)”.

With B5, the binding result is given as “no binding (tested: up to 100 nM)”.

Take B8: the binding result is “no binding (tested: up to 100 nM)”.

In a further assay the target is T4, cynomolgus monkey TL1A, soluble, E. …. Briefly: SPR 25C, mAb captured. The gist of the method:
as §1
Consider B1, for which binding was characterised by a dissociation constant (Kd) of 242 pM and the t1/2 was found to be 1.32 h.

Consider B2, for which the Kd (usually the equilibrium constant for the complex coming apart) came to 1360 pM and the t1/2 stood at 0.3 h.

In the case of B4, the affinity, expressed as Kd, was 141 pM and the t1/2 was found to be 3.68 h.

B5 returned a Kd of 52700 pM and a t1/2 of 0.0667 h.

Molecule B8 came in with an equilibrium dissociation constant (Kd) of 274 pM and a t1/2 of 2.03 h.

In another assay the target is T5, Fhm, hTL1A(Q167R), soluble, E. …. Kind of assay: SPR 25C, mAb captured. The gist of the method:
as §1
B1: the Kd was determined as 109 pM and the t1/2 amounted to 1.6 h.

B2: the Kd worked out at 1020 pM and the t1/2 was 0.317 h.

Molecule B4 gave a dissociation constant (Kd) of 115 pM and a t1/2 of 3.77 h.

With B5, binding was put at a Kd of 204 pM and the t1/2 was 10.4 h.

With B8, the binding result is listed as “no binding (tested: up to 100 nM)”.

The next assay concerns the target T6, cynomolgus monkey TL1A, soluble, …. Kind of assay: SPR 37C, mAb captured. The gist of the method:
as §1
In the case of B1, the affinity, expressed as Kd, was 2.01 pM and the t1/2 stood at 96.4 h.

With B2, the dissociation constant Kd is 465 pM and the t1/2 is 1 h.

In turn, B9 registered a Kd of 226 pM and a t1/2 of 0.533 h.

The molecule B3 yielded a Kd of 352 pM and a t1/2 of 1.13 h.

B4 showed a Kd of 173 pM and a t1/2 of 2.07 h.

As for B8, the Kd is 223 pM and the t1/2 is 1.52 h.

A further assay deals with T7, human TL1A, soluble, CHO-expressed, …. Briefly: SPR 37C, mAb captured. The gist of the method: as §1
B1 displayed a Kd of 7.61 pM and a t1/2 of 31.9 h.

B2 gave a Kd of 571 pM and a t1/2 of 0.85 h.

Molecule B9 displayed a Kd of 254 pM and a t1/2 of 0.517 h.

For the molecule B3, the Kd is 299 pM and the t1/2 came to 1.33 h.

B4 displayed a Kd of 177 pM and a t1/2 of 2.15 h.

In turn, B8 had a Kd of 225 pM and a t1/2 of 1.6 h.

The next assay addresses T4, cynomolgus monkey TL1A, soluble, E. …. Briefly: SPR 37C, mAb captured. The gist of the method:
as §1
Take B1: the dissociation constant Kd amounted to 289 pM and the t1/2 was determined as 0.667 h.

With B2, the Kd is 4200 pM and the t1/2 was 0.0667 h.

With B4, binding was characterised by a dissociation constant (Kd) of 281 pM and the t1/2 came out at 1.23 h.

With B5, the Kd turned out to be 456000 pM and the t1/2 was 0.0167 h.

For B8, binding was characterised by a dissociation constant (Kd) of 1320 pM and the t1/2 turned out to be 0.483 h.
